Test results from the RNAGym collection of RNA variant scans (doi:10.1073/pnas.2313332121).
Fewer inactive variants are shown than the library holds.

B1: TPR 5TU (parent)
chain: GGAUCUUCUCGAUCUAACAAAAAAGACAAAUCUGCCACAAAGCUUGAGAGCAUCUUCGGAUGCAGAGGCGGCAGCCUUCGGUGGCGCGAUAGCGCCAACGUUCUCAACUAUGACACGCAAAACGCGUGCUCCGUUGAAUGGAGUUUAUCAUG

Variants of: B1
Assay: polymerase ribozyme fitness, log enrichment relative to wild type (log ratio); higher = more active; in vitro selection for triplet polymerase activity
Procedure, shortened: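 To select mutant libraries of each subunit of a heterodimeric triplet polymerase ribozyme, built by PCR and transcribed, each was annealed with a biotinylated primer, partner subunit and triplets, then incubated frozen at −7 °C. Extended constructs were gel-excised, captured on streptavidin beads and amplified by RT-PCR, in one round carried out in triplicate. Illumina sequencing of input and output libraries kept genotypes with ≥10 input reads and ≥1 read per output. Fitness is the base-2 logarithm of genotype enrichment relative to wild-type enrichment, from inverse-variance-weighted replicate averages.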

| Variant | polymerase ribozyme fitness (log ratio) |
| --- | --- |
| U56A U127G | -2.83 |
| U55G G88U | -4.02 |
| U55A C93G | -3.83 |
| C54U G59C A64C G94U A120G | ≤ -4.2 |
| U55G U90G C123G U134A | ≤ -4.2 |
| U56A C93A A98G | -2.63 |
| U55C C57A A73G C96U A121C C131U | 1.56 |
| C54U G59A A106G | 0.342 |
| U55G C96U | -0.6 |
| C57A C93A A106U A122U | -2.85 |
| U56A U139C | -3.15 |
| U55A U61G | -3.71 |
| U56G U61G G128U | -3.73 |
| U55A G84A A121U | -1.24 |
| U56G A64C | ≤ -4.2 |
| U55A C76G G92A A122G | ≤ -4.2 |
| C57A C131G | -3.13 |
| U56G G62C A120C C132A U139G | ≤ -4.2 |
| U55C A91G A106C C129U C131U | ≤ -4.2 |
| U55A G88C U90C A122G G124A U148A | -4.18 |
| U55A C79A | ≤ -4.2 |
| U56A G84A C105A C131U | -1.2 |
| C57A A73G | 0.866 |
| U55G C103A | -2.99 |

| Variant | polymerase ribozyme fitness (log ratio) |
| --- | --- |
| U56A G58C G59C C76G | ≤ -4.2 |
| U56A C87U U148A | -3.33 |
| U56A C85G G86U | ≤ -4.2 |
| U56A C99A | -1.6 |
| U56A U82G U139A | -4.02 |
| U55G A98G U139G | -0.271 |
| U55A G59U C87U | -2.31 |
| U56C C69A U135A | -3.01 |
| U55C A91G | -3.06 |
| U56A G70C G117C | -3.79 |
| U55G G58U G62C C85U A137G | -3.31 |
| U55G G83U C85U A89U C95A | -3.88 |
| U55A A89U | -0.224 |
| C54U G84A C93G | ≤ -4.2 |
| U56G A60G | -0.515 |
| U56A G83A | -0.831 |
| U56A G58A C93A | -1.41 |
| U56A U82A C96A C114G | -3.42 |
| U56A C87U C131G | -3.21 |
| C54U U56A G70A C85A G86U C95G | ≤ -4.2 |
| C54U C103U C123A U148G | ≤ -4.2 |
| U55A G81A C87U G136A | 0.0612 |
| U55A A66G G86A A97G U146G | ≤ -4.2 |
| U56A G143C | -2.27 |

| Variant | polymerase ribozyme fitness (log ratio) |
| --- | --- |
| C57A G59C | 0.0811 |
| C57G C85A C118U G143C | -4.1 |
| C57A A107U | -3.62 |
| U56A U144C | 0.537 |
| U56G C118U C123U | -0.604 |
| U55A U90A G100C C118U | ≤ -4.2 |
| C57G C85A | -3.21 |
| U55A A106G A119C A122G | -0.869 |
| C57A C105U A120G | 0.486 |
| U56A C85U C114A G141C | ≤ -4.2 |
| U56A G94A | -1.28 |
| C54U G83A A147U | -0.818 |
| U56G C96A | -1.15 |
| C54U C123U G124A U144C | -0.47 |
| U56A G84A A98U U101C | -1.09 |
| C57G A60C G81C C103A U111G A119C | ≤ -4.2 |
| C54U U56A C93U G133U | -4.06 |
| U55C | 0.0178 |
| U55G | -0.284 |
| U55A | -0.301 |
| U56A A137C | -3.11 |
| U55A G92U C96A G117A A121U | -1.48 |
| U55G C131A | -2.39 |
| U55A G59A C116A | 2.35 |

| Variant | polymerase ribozyme fitness (log ratio) |
| --- | --- |
| U55G C96A U109G G143A | -3.3 |
| U55G C96U C105U G143A | -0.651 |
| U55G G88U G94A G124A C125G G126A A142U | ≤ -4.2 |
| C57A C69A C72U C85A | -3.55 |
| U56C A120C C149U | -1.17 |
| C57A A60C C96U C132A | -3.83 |
| U56A C76U A113C | -2.48 |
| U56A C57U C63U U101A U104C C108U | ≤ -4.2 |
| C57A U145C | 0.674 |
| U56A C85A U101G G152C | -4.1 |
| U55A G83A C105G C118A | -3.78 |
| U55A G128U | -3.12 |
| U55A U148A | -3.84 |
| U55G C85U A91G G94A | -3.29 |
| U56A C96U U148A | -3.44 |
| U55A G94A | -0.894 |
| U56A A60G C79G A119C A121U | -3.78 |
| U55A G71A G80C | ≤ -4.2 |
| U55A C85U C116G G133C | -1.34 |
| U55C C95A C96G G117C | -2.16 |
| U55A C57A G59C G80U A91U | ≤ -4.2 |
| C54U U56A G84U | -0.698 |
| U55C U144C | 0.187 |
| C57A G94C | 0.0611 |

| Variant | polymerase ribozyme fitness (log ratio) |
| --- | --- |
| U55A A64G | -3.3 |
| U56A C93A A106G | -1.97 |
| U55G G74A C85U A110G | ≤ -4.2 |
| U55A G84U G124A | -1.26 |
| C57A G92C C123A | -0.277 |
| C54U G86U A150U | -0.319 |
| U56G C69U A91U C105G U130A | ≤ -4.2 |
| U56A C75G G94A C105U G133U | -4.17 |
| C57A U78G G86C A89U C96U A120U C129G | ≤ -4.2 |
| U56A U61G G88C G136U | ≤ -4.2 |
| U56A C75U A121C G128U | -2.63 |
| C57G A142C | -0.312 |
| C57A G74A | -2.66 |
| U55G G84A | -1.68 |
| U55G G84C A107G A142C | ≤ -4.2 |
| U55C G59C A107C C131U U134G G136C | ≤ -4.2 |
| U56A U109C G141U | -2.56 |
| U55G C87U C129G | -3.16 |
| U55G C85G G88U G92U C108U | ≤ -4.2 |
| U56A U135A | -1.16 |
| U55G G59U U127C | -2.75 |
| U56G G58A A73G C108U A150G | ≤ -4.2 |
| U55G C79G | -3.78 |
| U55A G83U C85A U101C C116A | ≤ -4.2 |

| Variant | polymerase ribozyme fitness (log ratio) |
| --- | --- |
| U56A G81C C87U | -1.03 |
| U55A C63G | 0.923 |
| U56A G59U C69A C87U U101C G140U | -3.01 |
| U56A C95U | 0.199 |
| U56A G94A A97U | -1.41 |
| U56A C85A A91G G128U | ≤ -4.2 |
| U55G U61A | -3.22 |
| U56A C95G A98G | -1.91 |
| U56A G81C G83A C87G A107G A122C G141U | ≤ -4.2 |
| U55A C76G C85A A113U G128A | ≤ -4.2 |
| C57A C85U U146C | -0.426 |
| C57G A91U A147U | ≤ -4.2 |
| U55A C93U C95A | -2.89 |
| C54U U56G C57U C76U C95G | -2.9 |
| U56A A106C U109G C114U C118A | ≤ -4.2 |
| U55A G59C | 0.269 |
| U55A C63U C85U C103A G136A A147U | -0.434 |
| U56A G88C A122G C123G | ≤ -4.2 |
| U56C C103G C129U | -4.1 |
| U55G U148C | -2.46 |
| U55A G83U A137G | -2.28 |
| U56A U82G C96U A120G | -0.394 |
| C54U U82C U90C C96A U101G | ≤ -4.2 |
| U56G G83A C87G A120U U135C | ≤ -4.2 |

| Variant | polymerase ribozyme fitness (log ratio) |
| --- | --- |
| U56G U90A | -3.7 |
| U56A C76U C87U C129G A150C | ≤ -4.2 |
| C57G C87U | -2.97 |
| U55G G58C C116U G143A | -1.24 |
| U55A C118G A147U | 0.0992 |
| U55G G94A A115G A122U U134C U139C G143A U148C | ≤ -4.2 |
| U55A C96A A107C C116A G124C U151A | ≤ -4.2 |
| U56A C76U C125U U148G G152U | -3.64 |
| C57A G58C G84A A91G | -3.28 |
| U56G C85G A119G G141C | -2.08 |
| U55A C85A | -2.26 |
| U55A C85G | -2.99 |
| U55A C69U C85A C87U | ≤ -4.2 |
| C54U U55G U56A C69U A73C A115U | ≤ -4.2 |
| C57G A110U C123A | -4.11 |
| U56A C131U | 0.529 |
| U55A A119G | -1.38 |
| U55A G58C G68U G81A A91U C96A | ≤ -4.2 |
| U55A G88A | ≤ -4.2 |
| U56A G92A A150G | -2.08 |
| U56G A89C C96A C116G A119C | -3.23 |
| C57A C129U C131U U134C | 1.02 |
| U55A C63A C96G | -2 |
